Patent publication US20090012268A1 (B R A H M S, published 2009)
Several values for one entry are separate records, joined by “and”; a condition that tells them apart may be missing. Identical values can stand only once.

Legend:
[1] = biological target: human TSH receptor expressed on cells (human, UniProt P16473 21-764); assay: cell-based or functional assay
mouse TSHr = mouse TSHr (mouse, UniProt P47750 22-764); assay: cell-based or functional assay
[2] = biological target: T1, recombinant human TSHr preparation immobilized on coated tubes (human, UniProt P16473 21-764, limits assumed); assay: displacement of 50% of 125I-labeled TSH from TSHr coated tubes
T1 construct: also called hTSHr coated tubes; TSHr coated tubes
Method: Selected mAbs and Fabs (generated after papain digestion) were purified by Sepharose-protein A affinity chromatography (ImmunoPure™ Fab preparation Kit, Pierce, Perbio Science, Belgium) and tested for their ability to stimulate cAMP production using JP26 CHO cells in normal isotonic medium (see above). For TBII activity determination, different amounts of antibodies were added in 250 μl of buffer A (20 mM Hepes-NaOH, pH 7.5, 50 mM NaCl, 1% BSA, 10% glycerol, 2 mg/ml mouse IgG) to hTSHr coated tubes. […] The tubes were incubated for 2 h at room temperature, washed four times with 2 ml washing buffer (8 mM Tris-Hl, 60 mM NaCl, 0.02% Tween-20, pH 7.5), and bound radioactivity was counted.

[3] = biological target: T1, recombinant human TSHr preparation …; assay: saturation with acridinium ester labelled antibody on hTSHr coated tubes; Kd1 of a biphasic curve
Method: (§1) 5 ng (−200 000 RLU) of acridinium ester labelled monoclonal antibody (20) and different amounts of unlabeled antibodies were added in 0.3 ml of buffer A to TSHr coated tubes. Tubes were incubated for 24 h at room temperature, washed four times with 2 ml washing buffer, and RLU were measured in a luminometer.
(§2) The purified antibodies were subsequently labelled with acridinium ester and used in saturation experiments on hTSHr coated tubes.

[4] = biological target: T1, recombinant human TSHr preparation …; assay: saturation with acridinium ester labelled antibody on hTSHr coated tubes; Kd2 of a biphasic curve
Method: as §1, §2

mouse TSHr, sequence (P47750 22-764): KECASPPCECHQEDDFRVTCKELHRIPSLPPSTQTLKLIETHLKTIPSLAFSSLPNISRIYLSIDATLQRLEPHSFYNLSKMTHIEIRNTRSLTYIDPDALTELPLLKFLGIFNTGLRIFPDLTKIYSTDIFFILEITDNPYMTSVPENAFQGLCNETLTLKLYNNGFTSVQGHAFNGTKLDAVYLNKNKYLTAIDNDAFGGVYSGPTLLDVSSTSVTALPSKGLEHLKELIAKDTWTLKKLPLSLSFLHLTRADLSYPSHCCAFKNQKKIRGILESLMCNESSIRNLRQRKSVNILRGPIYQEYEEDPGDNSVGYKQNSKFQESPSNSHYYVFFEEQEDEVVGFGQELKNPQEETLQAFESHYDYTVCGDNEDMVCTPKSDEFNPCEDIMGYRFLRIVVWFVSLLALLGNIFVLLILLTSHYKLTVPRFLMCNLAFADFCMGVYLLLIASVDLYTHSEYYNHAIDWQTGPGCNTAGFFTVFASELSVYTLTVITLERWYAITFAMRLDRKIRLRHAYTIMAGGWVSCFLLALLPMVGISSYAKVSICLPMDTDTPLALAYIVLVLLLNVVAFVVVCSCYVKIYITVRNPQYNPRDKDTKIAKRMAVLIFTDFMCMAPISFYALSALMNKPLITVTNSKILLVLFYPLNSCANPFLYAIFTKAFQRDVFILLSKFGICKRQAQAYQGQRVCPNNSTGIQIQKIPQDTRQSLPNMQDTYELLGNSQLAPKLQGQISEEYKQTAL

B1: IRI-SAb2 (antibody, IgG2a, V domains shown)
VH: SCKASGYSFTAYTMNWVKQSHGKNLEWIGLINPFNGGTNYNQKFEGKATLTVDKSSTTAYMELLSLTSEDSAVYYCARRVWDYFDYWGQGTSLTVSS
VL: EGSITCKASQNVGTNVAWYQQKGGQSLELLIYGASNRHTGVPDRFTGRGSGTDFTLTITNVQSEDMTNYFCEQYSRYPLTFGAG
notes: Mouse monoclonal IgG2a from a hybridoma; also called mAb IRI-SAb2; DSM ACC2664
In the case of B1, the “EC50 of cAMP production in JP26 cells, normal salt medium (IgG)” value [1] is reported as 2.75 nM, the “EC50 of cAMP production in MT3 cells, normal-salt medium” value (mouse TSHr) is reported as 1.3 nM and the IC50 [2] is reported as 0.3 µg/mL and 2 nM. It also gave a Kd [3] of 0.07 nM and a Kd [4] of 1.23 nM.

B2: IRI-SAb3 Fab fragment (Fab, V domains shown)
VH: SCKASGYSFTAYTMNWVKQSHGYNLEWIGLINPYNGGANYNQKFKGKATLTVDKSSSTAYMELLSLTSEDSAVYYCARRVWDYFDYWGQGTTLTVSS
VL: EGSITCKASQNVGTNVAWYQQKVGQSLELLIYGASSRHTGVPDRFTGSGSGTDFTLTITDVQSEDMTNYFCEQYSSYPLTFGAG
In the case of B2, the “EC50 of cAMP production in JP26 cells (Fab)” value [1] is reported as 74 nM.

B3: IRI-SAb2 Fab fragment (Fab, V domains shown)
VH: SCKASGYSFTAYTMNWVKQSHGKNLEWIGLINPFNGGTNYNQKFEGKATLTVDKSSTTAYMELLSLTSEDSAVYYCARRVWDYFDYWGQGTSLTVSS
VL: EGSITCKASQNVGTNVAWYQQKGGQSLELLIYGASNRHTGVPDRFTGRGSGTDFTLTITNVQSEDMTNYFCEQYSRYPLTFGAG
For B3, the “EC50 of cAMP production in JP26 cells (Fab)” value [1] was 1.2 nM.

B4: IRI-SAb3 (antibody, IgG1, V domains shown)
VH: SCKASGYSFTAYTMNWVKQSHGYNLEWIGLINPYNGGANYNQKFKGKATLTVDKSSSTAYMELLSLTSEDSAVYYCARRVWDYFDYWGQGTTLTVSS
VL: EGSITCKASQNVGTNVAWYQQKVGQSLELLIYGASSRHTGVPDRFTGSGSGTDFTLTITDVQSEDMTNYFCEQYSSYPLTFGAG
For B4, the “EC50 of cAMP production in MT3 cells, normal-salt medium” value (mouse TSHr) was 3.8 nM.
